Test results reported in US20220106398A1 (IGM BIOSCIENCES, published 2022).
Changes are numbered by the printed parent chain.

T1: human His6-GITR (human, UniProt Q9Y5U5 26-162)
T1 construct: His6-tagged recombinant protein; also called hGITR-His; human GITR-His
T1 sequence: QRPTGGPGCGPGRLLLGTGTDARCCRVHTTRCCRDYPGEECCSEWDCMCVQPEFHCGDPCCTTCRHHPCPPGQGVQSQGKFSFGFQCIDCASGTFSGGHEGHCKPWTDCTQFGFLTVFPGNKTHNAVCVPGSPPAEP

T2: cynomolgus monkey His6-GITR (cynomolgus monkey)
T2 construct: His6-tagged recombinant protein; also called cGITR-His; cyno GITR-His
T2 chain: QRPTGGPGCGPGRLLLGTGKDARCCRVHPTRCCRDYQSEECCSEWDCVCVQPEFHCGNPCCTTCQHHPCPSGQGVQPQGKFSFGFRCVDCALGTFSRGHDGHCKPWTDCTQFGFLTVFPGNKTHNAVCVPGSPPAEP

T3: mouse His6-GITR (mouse, UniProt O35714 20-153)
T3 construct: His6-tagged recombinant protein; also called mGITR-His; mouse GITR-His
T3 sequence: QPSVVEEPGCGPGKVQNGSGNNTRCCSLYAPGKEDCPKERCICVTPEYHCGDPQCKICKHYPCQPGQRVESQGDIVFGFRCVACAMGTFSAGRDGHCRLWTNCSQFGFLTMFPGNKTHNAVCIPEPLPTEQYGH

B1: GITR-Mab-1 scFv (scFv, V domains shown)
VH: QVQLVQSGAEVKKPGASVKVSCKASGYTFTNYHLHWVRQAPGQGLEWMGMINPNDGSTTYAQKFQGRVTMTRDTSTSTVYMELSSLRSEDTAVYYCARSTYYYDSSGYYYYYYGMDVWGQGTTVTVSS
VL: EIVMTQSPATLSVSPGERATLSCRASQSVYSNYLAWYQQKPGQAPRLLIYGASTRATGIPARFSGSGSGTEFTLTISSLQSEDFAVYYCQQYHSYPLTFGGGTKVEIK
notes: scFv in periplasmic extract, V5 tag
B2: GITR-Mab-27 scFv (scFv, V domains shown)
VH: QVQLVQSGAEVKKPGASVKVSCKASGYTFTSYDINWVRQAPGQGLEWIGWMNTNSGDTGYAQKFQGRVTMTRDTSTSTVYMELSSLRSEDTAVYYCARQAYSSSWYWYGWFDPWGQGTLVTVSS
VL: DIQMTQSPSSLSASVGDRVTITCQASHDIDNYLNWYQQKPGKAPKLLIYAASNLQSGVPSRFSGSGSGTDFTLTISSLQPEDFATYYCQQANSFPLTFGPGTKVDIK
notes: as for B1
B3: GITR-Mab-28 scFv (scFv, V domains shown)
VH: QVQLVQSGAEVKKPGASVKVSCKASGYTFPNYGITWVRQAPGQGLEWMGWMNPNSGYTGYAQNFQGRVTMTRDTSTSTVYMELSSLRSEDTAVYYCARGMPGRGFDPWGQGTLVTVSS
VL: B1 VL with Y30S, S94T, L97P, G101Q, V105L
notes: as for B1
B4: GITR-Mab-29 scFv (scFv, V domains shown)
VH: QVQLVQSGAEVKKPGASVKVSCKASGYTFSSDYIHWVRQAPGQGLEWMGRINPSGGSTLYARRFQGRVTMTRDTSTSTVYMELSSLRSEDTAVYYCARERGAADTWYFDLWGRGTLVTVSS
VL: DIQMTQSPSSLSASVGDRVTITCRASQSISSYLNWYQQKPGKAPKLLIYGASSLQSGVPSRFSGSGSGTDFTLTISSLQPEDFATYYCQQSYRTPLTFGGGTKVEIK
notes: as for B1
B5: GITR-Mab-30 scFv (scFv, V domains shown)
VH: QVQLVQSGAEVKKPGASVKVSCKASGGTFSSYAISWVRQAPGQGLEWMGIIDPTGGATAYAQEFQGRVTMTRDTSTSTVYMELSSLRSEDTAVYYCARVGYYYGMDVWGQGTMVTVSS
VL: not shown
notes: as for B1
B6: GITR-Mab-31 scFv (scFv, V domains shown)
VH: QVQLVQSGAEVKKPGSSVKVSCKASGGTFSSYAISWVRQAPGQGLEWMGGIIPISSATSIPQKFQGRVTITADESTSTAYMELSSLRSEDTAVYYCARSYDSRYYGMDVWGQGTTVTVSS
VL: B1 VL with S28T, Y30G, N32R, H93Y, Y95T, L97W, G101Q, K104R, V105L
notes: as for B1
B7: GITR-Mab-32 scFv (scFv, V domains shown)
VH: QVQLVQSGAEVKKPGASVKVSCKASGGTFSSYAISWVRQAPGQGLEWMGWMNPNSGDTGYAQKFQGRVTMTRDTSTSTVYMELSSLRSEDTAVYYCARGPWYFDLWGRGTLVTVSS
VL: DIQMTQSPSSLSASVGDRVTITCRVSQGISNSLAWYQQKPGKAPKLLIYAASSLQSGVPSRFSGSGSGTDFTLTISSLQPEDFATYYCQQSYSTVYTFGQGTKLEIK
notes: as for B1
B8: GITR-Mab-33 scFv (scFv, V domains shown)
VH: EVQLLESGGGLVKPGGSLRLSCAASGFMFSSYSMNWVRQAPGKGLEWVSYISGNSGYTNYADSVKGRFTISRDDSKNTLYLQMNSLKTEDTAVYYCARRLHGMDVWGQGTTVTVSS
VL: DIQMTQSPSSLSASVGDRVTITCRASQSISTWLAWYQQKPGKAPKLLIYDASNLETGVPSRFSGSGSGTDFTLTISSLQPEDFATYYCQQAYRFPVAFGGGTKVEIK
notes: as for B1
B9: GITR-Mab-4 scFv (scFv, V domains shown)
VH: EVQLLESGGGLVQPGGSLRLSCAASGFTFSSYDMHWVRQAPGKGLEWVSAISSSGGSIYYADSVKGRFTISRDNSKNTLYLQMNSLRAEDTAVYYCARDSVVVPKGPNRKYYYYGMDVWGQGTKVTVSS
VL: not shown
notes: as for B1
B10: GITR-Mab-34 scFv (scFv, V domains shown)
VH: EVQLLESGGGLVQPGGSLRLSCAASGFTFSSYWMHWVRQAPGKGLEWVSVISNSGGATYYADSVKGRFTISRDNSKNTLYLQMNSLRAEDTAVYYCAREGWGYGMDVWGQGTTVTVSS
VL: DIQMTQSPSSLSASVGDRVTITCRASQDIRNYLAWYQQKPGKAPKLLIYTASTLQSGVPSRFSGSGSGTDFTLTISSLQPEDFATYYCQQTFRTPLTFGGGTKVEIK
notes: as for B1
B11: GITR-Mab-35 scFv (scFv, V domains shown)
VH: QVQLVQSGAEVKKPGASVKVSCKASGYTFTNYYMHWVRQAPGQGLEWMGLITPSGGRTKYAQKFQGRVTMTRDTSTSTVYMELSSLRSEDTAVYYCAREMEYSSSWYWFDPWGQGTLVTVSS
VL: B10 VL with R24Q, D28G, R30S, N31S, A34N, T50A, T91S, F92Y, R93S
notes: as for B1
B12: GITR-Mab-36 scFv (scFv, V domains shown)
VH: QVQLVQSGAEVKKPGASVKVSCKASGYTFTRNYIHWVRQAPGQGLEWMGWINPKSGGTKYAQKFQGRVTMTRDTSTSTVYMELSSLRSEDTAVYYCARESGVVATEYWYFDLWGRGTLVTVSS
VL: not shown
notes: as for B1
B13: GITR-Mab-37 scFv (scFv, V domains shown)
VH: QVQLVQSGAEVKKPGASVKVSCKASGYTFTSYYMHWVRQAPGQGLEWMGWINPNSGGTNYAQKFQGRVTMTRDTSTSTVYMELSSLRSEDTAVYYCASPGDYCSGGSCYSDDAFDIWGQGTMVTVSS
VL: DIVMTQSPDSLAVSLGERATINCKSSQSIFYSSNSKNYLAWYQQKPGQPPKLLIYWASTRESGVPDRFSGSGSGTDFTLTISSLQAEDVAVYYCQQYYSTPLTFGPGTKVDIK
notes: as for B1
B14: GITR-Mab-38 scFv (scFv, V domains shown)
VH: QVQLVQSGAEVKKPGASVKVSCKASGGTFRNYAINWVRQAPGQGLEWMGWMNPNSGNTGYAQKFQGRVTMTRDTSTSTVYMELSSLRSEDTAVYYCAREDVDTASQAYFDYWGQGTLVTVSS
VL: B7 VL with V25A, S32Y, A50S, S53N, S91G, T94S, V95R
notes: as for B1
B15: GITR-Mab-39 scFv (scFv, V domains shown)
VH: EVQLLESGGGLVKPGGSLRLSCAASGFTFSSYWMSWVRQAPGKGLEWVSSISWSSTYIYYADSVKGRFTISRDDSKNTLYLQMNSLKTEDTAVYYCARDGQLGHWHFDLWGRGTLVTVSS
VL: B8 VL with T31D, D50E, N53K, E55A, A91S, R93T, F94T, V96L, A97T
notes: as for B1
B16: GITR-Mab-40 scFv (scFv, V domains shown)
VH: EVQLLESGGGLVQPGGSLRLSCAASGFTFRNHWMSWVRQAPGKGLEWVSGISWNSGSIDYADSVKGRFTISRDNSKNTLYLQMNSLRAEDTAVYYCAREEYATFDYWGQGTLVTVSS
VL: not shown
notes: as for B1
B17: GITR-Mab-45 scFv (scFv, V domains shown)
VH: QVQLVQSGAEVKKPGASVKVSCKASGYTFTSYGISWVRQAPGQGLEWMGWMNPNSGNTGYAQKFQGRVTMTRDTSTSTVYMELSSLRSEDTAVYYCAREVYGDLDYWGQGTLVTVSS
VL: DIQMTQSPSSLSASVGDRVTITCRASQGIDNWLAWYQQKPGKAPKLLIYGASTLQSGVPSRFSGSGSGTDFTLTISSLQPEDFATYYCQQSYTARFTFGPGTKVDIK
notes: as for B1

These binders were tested against T1, human His6-GITR (assay: ELISA, scFv periplasmic extract on coated His6-GITR).
Method: (§1) The SuperHuman-2.0 scFv Antibody Library (available from Distributed Bio, South San Francisco, Calif.) was used to perform selection with human, cynomolgus or mouse GITR proteins. Selected phage clones from overnight growth were inoculated into wells in 96 well deep well plates containing 1 mL of medium. scFv expression was induced by addition of IPTG (Teknova) to a final concentration of 1 mM. Plates were grown overnight after induction. To prepare periplasmic extracts (PPE), the plates containing the phage clones were centrifuged at 2500 rpm for 10 min, the supernatant discarded and then pellets treated with 75 μL of cold periplasmic extract buffer with appropriate concentration of protease inhibitors (Complete Mini, EDTA-free -Roche Applied Biosciences—Cat No 1836170). After shaking at room temperature for 10 min, 225 μL of cold ddH2O with added protease inhibitor (1 tablet/50 mL) was added per well and mixed by pipetting up and down. PPE extraction was completed by incubation at room temperature for an additional 1 hr. The plates were then centrifuged at 4000 rpm for 20 minutes and 200 μL of PPE supernatant was collected from each well and transferred to a new plate which was then blocked with equal volume of 4% milk (2% final) to prepare blocked PPE extracts. In the meantime, Maxisorp plates (Nunc 442404) coated with relevant antigen (human, mouse or cynomolgus monkey His6-GITR) at 50 μl/well of 1 μg/mL antigen or 2% BSA in PBS as control were prepared for ELISA analyses. Next, 50 μL of each blocked PPE extract was transferred to the pre-blocked ELISA plates coated with the relevant antigens. After incubation and washing 3× with PBS, 50 μL of anti-V5 tag antibody (tag included in the phage display constructs, Invitrogen Cat No R960-25) at 1:5000 dilution in 2% milk was added and the plates were incubated for 1 hr. […] After further washing 3× with PBST, 50 μl/well of TMB substrate was added and the plates were developed until positive controls were visible. The reaction was stopped with 50 μl/well of 2N H2SO4. Plates were read at 450 nm to determine ELISA signal from bound PPE derived scFv.

Binder | hGITR-His/BKG [fold over background]
B1 | 13.2
B2 | 24.6
B3 | 11.5
B4 | 12.4
B5 | 18.7
B6 | 17.7
B7 | 18
B8 | 17.7
B9 | 9.6
B10 | 7.7
B11 | 25.3
B12 | 8.8
B13 | 13.2
B14 | 2.9
B15 | 4.2
B16 | 13.9
B17 | 1.4

Biological target: T2, cynomolgus monkey His6-GITR
Assay: as above
Method: as §1

Binder | cGITR-His/BKG [fold over background]
B1 | 15.8
B2 | 1
B3 | 1
B4 | 1.1
B5 | 1
B6 | 1.2
B7 | 4.9
B8 | 1.3
B9 | 10.3
B10 | 1.1
B11 | 0.9
B12 | 1.4
B13 | 11.7
B15 | 4
B16 | 15.5

The binders below were run against T3, mouse His6-GITR in the same assay as above.
Method: as §1

Binder | mGITR-His/BKG [fold over background]
B1 | 1.1
B2 | 1.3
B3 | 1
B4 | 1
B5 | 1
B6 | 1.2
B7 | 1
B8 | 1
B9 | 16.1
B10 | 1.2
B11 | 0.9
B12 | 0.9
B13 | 13.7
B15 | 4.4
B16 | 23.2
B17 | 4.5
